In patent publication US12364768B2, “Nectin-4 antibody conjugates and uses thereof” (ARARIS BIOTECH AG, priority 2020, dated 2025):

T1: mouse Nectin-4 (Mus musculus, UniProt Q8R007)
T1 sequence (Q8R007 31-508): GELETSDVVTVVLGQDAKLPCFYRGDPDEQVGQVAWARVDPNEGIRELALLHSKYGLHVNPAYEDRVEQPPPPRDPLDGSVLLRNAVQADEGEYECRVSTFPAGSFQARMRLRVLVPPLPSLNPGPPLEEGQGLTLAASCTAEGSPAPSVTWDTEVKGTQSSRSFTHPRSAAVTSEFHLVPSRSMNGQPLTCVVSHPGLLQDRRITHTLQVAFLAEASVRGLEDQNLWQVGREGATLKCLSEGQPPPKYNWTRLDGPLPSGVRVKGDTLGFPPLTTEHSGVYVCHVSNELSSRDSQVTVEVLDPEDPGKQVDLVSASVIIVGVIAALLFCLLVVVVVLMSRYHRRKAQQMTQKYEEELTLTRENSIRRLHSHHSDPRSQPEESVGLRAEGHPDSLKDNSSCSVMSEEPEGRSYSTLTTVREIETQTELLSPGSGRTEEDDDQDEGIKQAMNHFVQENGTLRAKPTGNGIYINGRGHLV

T2: TIGIT binding to Nectin-4 expressing T24 tumor cells (Homo sapiens, UniProt Q96NY8)
T2 construct: expressed in transfected cells; host or cells: T24 clone, lentiviral transduction
T2 sequence (Q96NY8 32-510): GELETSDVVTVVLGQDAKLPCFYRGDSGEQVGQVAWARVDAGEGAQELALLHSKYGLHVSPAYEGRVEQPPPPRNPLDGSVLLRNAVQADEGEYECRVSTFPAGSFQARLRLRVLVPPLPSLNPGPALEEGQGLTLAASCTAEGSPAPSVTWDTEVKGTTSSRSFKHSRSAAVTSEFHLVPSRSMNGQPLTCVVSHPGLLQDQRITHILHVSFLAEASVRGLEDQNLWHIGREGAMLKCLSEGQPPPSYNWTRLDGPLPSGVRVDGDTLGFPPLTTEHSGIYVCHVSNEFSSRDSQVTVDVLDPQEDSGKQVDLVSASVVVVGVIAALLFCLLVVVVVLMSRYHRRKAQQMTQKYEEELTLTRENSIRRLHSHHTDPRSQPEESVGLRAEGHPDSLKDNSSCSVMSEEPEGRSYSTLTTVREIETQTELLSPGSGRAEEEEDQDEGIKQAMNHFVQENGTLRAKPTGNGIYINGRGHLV


Columns and labels:
mouse Nectin-4 = target: T1, mouse Nectin-4; assay: Binding of purified humanized D6C mAbs to mouse Nectin-4; conditions: mAb of hzD6C VH with the named VL
Experimental: The humanized D6C VH region was combined with human IgG1 (SEQ ID NO:18) heavy chain constant region, and each humanized D6C VL region was combined individually with the human kappa light chain constant region (SEQ ID NO:20). The humanized D6C heavy chain (SEQ ID NO:24) was co-transfected with each humanized light chain (SEQ ID NOS:26-31) individually into CHO cells in a 30 mL culture, using the parental chimeric antibody, D6C, as a benchmark. A total of 7 mAbs were generated, purified, and analyzed for titer, purity, and binding.
Analytical size-exclusion chromatography was used to measure the percent purity (% protein of interest, POI), which is preferably 95% or greater. There was a reduction in percent purity seen with the chimeric D6C (84%) and the CDR grafted hzD6C VL (94%). The I2V, N33Q, and G34A mutations in hzD6.1C VL (98%), hzD6.2C VL (95%), and hzD6.3C VL (96%), respectively, as well as the […] N33Q double mutation hzD6.4C VL (99%), resolve the purity issue.

[1] = target: T2, TIGIT binding to Nectin-4 expressing T24 tumor cells; assay: Blocking of TIGIT-Fc binding to Nectin-4 expressing T24 tumor cells; assay type: cell-based; conditions: rhTIGIT-Fc 40 nM; antibody at various concentrations from 400 nM, 1:2 dilutions
Source text: Anti-Nectin-4 antibody was examined to determine whether it could block binding of TIGIT to Nectin-4 expressing T24 tumor cells. Stable Nectin-4 expression in a T24 clone was achieved by Nectin4-lentiviral transduction. Recombinant human TIGIT-Fc chimera was purchased from R & D Systems. Briefly, cell binding was examined on Nectin-4 expressing T24 cells, which were dispensed into wells of V-bottom 96-well assay plates (1×10^5 cells/well), spun down, and the supernatant discarded. The cells were incubated with an anti-Nectin-4 antibody (hzD6.2C-mIgG2a) or an isotype control (mIgG2a) at eight different concentrations, starting with 400 nM and then 1:2 serial dilution, incubated at 4° C. for 30 min., and then rhTIGIT-Fc was added to each well at a final concentration of 40 nM. The treated cells were incubated at 4° C. for 30 min., washed three times, and then commercial PE anti-human Fc as a secondary antibody (1:200 dilution) was added and incubated at 4° C. for 20 min. The cells were washed twice and analyzed on BD Celesta™ flow cytometry. Percent of inhibition of TIGT (40 nM) binding due to anti-Nectin-4 antibody present was measured.

binding to mouse Nectin-4 (mouse Nectin-4)	blocking of TIGIT binding [1]	Molecule
no binding	–	hzD6.3C VL: "CDR1 mutation to remove a potential deamidation site ... hzD6.3C VL N33Q (position 30c under Kabat), SEQ ID NO:15" (antibody, V domains shown, Synthetic sequence hzD6.3C VL) VL: DIVMTQTPLSLPVTPGEPASISCRSSQSIVHSQGNTYLEWYLQKPGQSPQLLIYKVSNRFSGVPDRFSGSGSGTDFTLKISRVEAEDVGVYYCFQGSHVPYTFGGGTKVEIK
–	more than 70%	hzD6.2C-mIgG2a: "an anti-Nectin-4 antibody (hzD6.2C-mIgG2a)" (antibody, V domains shown) VH: EVQLVESGGGLVQPGGSLRLSCAASGFTFSNYDMSWVRQAPGKGLEWVATISSGGSYTYYVDSVKGRFTISRDNAKNSLYLQMNSLRAEDTAVYYCARQELGSYYAMDYWGQGTTVTVSS VL: DIVMTQTPLSLPVTPGEPASISCRSSQSIVHSNANTYLEWYLQKPGQSPQLLIYKVSNRFSGVPDRFSGSGSGTDFTLKISRVEAEDVGVYYCFQGSHVPYTFGGGTKVEIK
no binding	–	hzD6.4C VL: "a FR1 and a CDR1 mutation (hzD6.4C VL I2V N33Q (positions 2 and 30c under Kabat), SEQ ID NO:16" (antibody, V domains shown, Synthetic sequence hzD6.4C VL) VL: DVVMTQTPLSLPVTPGEPASISCRSSQSIVHSQGNTYLEWYLQKPGQSPQLLIYKVSNRFSGVPDRFSGSGSGTDFTLKISRVEAEDVGVYYCFQGSHVPYTFGGGTKVEIK
